{"source": "patent US4757012A", "about": "“Ascorbic acid intermediates and process enzymes” (Genentech, Inc., priority 1984, dated 1988)", "proteins": {"B1": {"name": "2,5-DKG reductase (Corynebacterium sp. ATCC 31090) (protein)", "chain": "MTVPSIVLNDGNSIPQLGYGVFKVPPADTQRAVEEALEVGYRHIDTAAIYGNEEGVGAAIAASGIARDDLFITTKLWNDRHDGDEPAAAIAESLAKLALDQVDLYLVHWPTPAADNYVHAWEKMIELRAAGLTRSIGVSNHLVPHLERIVAATGVVPAVNQIELHPAYQQREITDWAAAHDVKIESWGPLGQGKYDLFGAEPVTAAAAAHGKTPAQAVLRWHLQKGFVVFPKSVRRERLEENLDVFDFDLTDTEIAAIDAMDPGDGSGRVSAHPDEVD", "notes": "made in house; host or cells: Corynebacterium sp; ATCC 31090 (natural producer, native enzyme purified from cell paste, not recombinant)"}}, "key": {"[1]": {"substrate": "O=C(O)C(=O)[C@@H](O)[C@H](O)C(=O)CO", "experiment": "2,5-DKG reductase kinetic / substrate specificity assay with purified enzyme", "type": "biochemical, Corynebacterium sp. ATCC 31090", "settings": "other: substrate 2,5-DKG, 150 mM sodium phosphate buffer, pH 6.4, 25° C.", "source_text": "(§1) The following assay conditions were used to determine kinetic parameters: […]"}, "[2]": {"substrate": "NC(=O)C1=CN([C@@H]2O[C@H](COP(=O)(O)OP(=O)(O)OC[C@H]3O[C@@H](n4cnc5c(N)ncnc54)[C@H](OP(=O)(O)O)[C@@H]3O)[C@@H](O)[C@H]2O)C=CC1", "experiment": "2,5-DKG reductase kinetic / substrate specificity assay with purified enzyme", "type": "biochemical, Corynebacterium sp. ATCC 31090", "settings": "other: cofactor NADPH, 150 mM sodium phosphate buffer, pH 6.4, 25° C.", "source_text": "as §1"}}}
{"protein": "B1", "values": [{"measurement": "Km", "setting": "[1]", "result": 15.5, "unit": "mM"}, {"measurement": "Km", "setting": "[2]", "result": 0.0337, "unit": "mM"}]}
